Columns and labels:
[1] = molecular target: ribulose-1,5-bisphosphate carboxylase/oxygenase (RuBisCO) small subunit of Serratia sp. ISTD04 (Serratia sp. ISTD04 (endogenous)); assay: SEC; native RuBisCO purified from Serratia sp. ISTD04, Superdex 200 FPLC gel filtration in buffer A (200 mM Tris-Cl, 10 mM MgCl2, 132 mM KHCO3, 10 mM DTT, ATP, pH 7.8), 0.5 ml/min, 4°C; subunits of the eluted enzyme shown by SDS-PAGE (12%)
[2] = molecular target: ribulose-1,5-bisphosphate carboxylase/oxygenase (RuBisCO) large subunit of Serratia sp. ISTD04 (Serratia sp. ISTD04 (endogenous)); assay: as above

Substance | stoichiometry N [1] | stoichiometry N [2]
ribulose-1,5-bisphosphate carboxylase/oxygenase (RuBisCO) small subunit of Serratia sp. ISTD04 (natural protein) | 8 | 
ribulose-1,5-bisphosphate carboxylase/oxygenase (RuBisCO) large subunit of Serratia sp. ISTD04 (natural protein) |  | 8

From PMC3949746
